# Results published in PMC7338052.
# Biological target: endogenous CHK2 (human (endogenous in LNCaP)) (UniProt O96017)
# Assay: co-IP; LNCaP cells expressing wtAR, S81A or S308A for 48 hr; untreated or 6 Gy IR; endogenous CHK2 immunoprecipitated one hour after IR from 1 mg lysate; blotted for AR
# Chain of UniProt O96017 (O96017 whole entry): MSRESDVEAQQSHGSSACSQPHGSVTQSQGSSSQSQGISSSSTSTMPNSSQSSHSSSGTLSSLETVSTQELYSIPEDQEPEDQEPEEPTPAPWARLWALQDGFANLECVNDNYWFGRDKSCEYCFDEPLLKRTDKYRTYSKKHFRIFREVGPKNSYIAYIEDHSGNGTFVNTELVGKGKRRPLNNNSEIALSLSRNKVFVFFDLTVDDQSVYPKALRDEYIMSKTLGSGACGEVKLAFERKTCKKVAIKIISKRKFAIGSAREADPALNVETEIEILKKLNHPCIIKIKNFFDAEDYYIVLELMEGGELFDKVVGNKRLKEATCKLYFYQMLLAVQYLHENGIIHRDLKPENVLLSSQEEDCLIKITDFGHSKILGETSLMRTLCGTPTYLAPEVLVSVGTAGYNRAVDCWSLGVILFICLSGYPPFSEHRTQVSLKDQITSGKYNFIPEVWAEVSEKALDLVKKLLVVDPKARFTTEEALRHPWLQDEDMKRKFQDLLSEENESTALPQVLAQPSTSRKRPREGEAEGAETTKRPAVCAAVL
substance,measurement,value
wtAR expressed in LNCaP cells (from UniProt P10275 1-920) (receptor),fold change of AR co-immunoprecipitated with CHK2 after IR against untreated cells,4 fold
